The record followed here is US20190040153A1 (Novartis, published 2019).

Test [1] concerns the target cynomolgus monkey FGFR1c_β-klotho receptor complex (on HEK293 cells) (cynomolgus monkey; human, UniProt A0A2K5WB58 1-1044; P11362 22-822). The test is described as follows: cell-based or functional assay.
The target of test [2] is human FGFR1c_β-klotho receptor complex (on HEK293 cells) (human, UniProt P11362 22-822). The test can be described thus: cell-based or functional assay.
The target in test [3] is T1, human β-klotho (soluble, recombinant) (human, UniProt Q86Z14 53-997, limits assumed).
T1 construct: also called recombinant human β-klotho; beta-klotho
T1 sequence: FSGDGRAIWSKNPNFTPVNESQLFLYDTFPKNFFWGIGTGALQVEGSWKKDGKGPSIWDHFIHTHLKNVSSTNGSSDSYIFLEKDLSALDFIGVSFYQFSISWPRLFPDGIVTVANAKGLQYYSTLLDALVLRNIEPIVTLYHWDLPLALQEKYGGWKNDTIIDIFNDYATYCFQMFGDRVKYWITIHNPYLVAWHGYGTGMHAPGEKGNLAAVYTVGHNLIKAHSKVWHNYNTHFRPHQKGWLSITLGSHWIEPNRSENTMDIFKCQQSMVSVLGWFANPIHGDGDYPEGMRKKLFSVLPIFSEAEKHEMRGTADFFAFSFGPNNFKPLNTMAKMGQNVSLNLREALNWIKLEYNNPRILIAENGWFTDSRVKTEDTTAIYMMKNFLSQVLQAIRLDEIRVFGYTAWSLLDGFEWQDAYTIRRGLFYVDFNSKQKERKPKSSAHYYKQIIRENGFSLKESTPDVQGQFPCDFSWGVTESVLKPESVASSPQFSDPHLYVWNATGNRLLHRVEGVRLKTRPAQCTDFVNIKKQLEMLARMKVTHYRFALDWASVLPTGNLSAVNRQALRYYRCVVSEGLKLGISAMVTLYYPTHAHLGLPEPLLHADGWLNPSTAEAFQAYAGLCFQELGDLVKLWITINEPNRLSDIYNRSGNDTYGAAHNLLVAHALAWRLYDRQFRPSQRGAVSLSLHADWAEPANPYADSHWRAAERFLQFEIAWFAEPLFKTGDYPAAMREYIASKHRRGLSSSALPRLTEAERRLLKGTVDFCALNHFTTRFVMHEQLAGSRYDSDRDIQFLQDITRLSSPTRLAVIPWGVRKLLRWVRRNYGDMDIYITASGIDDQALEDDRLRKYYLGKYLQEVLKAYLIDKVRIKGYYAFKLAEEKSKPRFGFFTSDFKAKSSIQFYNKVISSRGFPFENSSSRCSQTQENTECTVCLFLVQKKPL
The test is described as follows: Biacore kinetics; IgG captured by anti-human Fc, human β-klotho as analyte. As for the experimental part:
Binding affinities of antibodies were determined using Biacore kinetic analysis. A Series S Sensor Chip CMS (GE Healthcare, Cat. No. BR-1005-30) was equilibrated to ambient temperature for approximately 30 minutes The system was primed with 1×HBS-EP+ buffer (10×soln, GE Healthcare, Cat. No. BR-1006-69) and the chip was loaded into the Biacore instrument. The chip was normalized using BIAnormalizing (GE Healthcare, Cat. No. BR-1006-51) solution and the chip was conditioned with 50 mM NaOH using a flow rate of 60 μL/minute for all flow paths. The 30 second injection was repeated three times with a wait time of 60 seconds. 10 mM sodium acetate pH 5.0 was injected at 60 μL/minute for 120 seconds and repeated twice. After a new cycle was started for immobilizing the anti-human IgG Fc using the Human Antibody Capture Kit (GE Healthcare, Cat. No. BR-1008-39). The anti-human Fc Ab was diluted to 50 μg/mL in immobilization buffer (10 mM sodium acetate pH 5.0). The amine coupling reagents were mixed 1:1 (EDC and NHS) and injected for 7 minutes at 10 μL/minute. Then anti-human Fc Ab was injected for 6 minutes at 10 μL/minute. Lastly ethanolamine was injected for 7 minutes at 10 μL/minute with a wait time of 60 seconds. This should result in immobilization of approximately 8000-10000 RU. Then we performed test injections for an Rmax of 10 RUs (capture levels=˜28 RUs) for NOV004, NOV005 and NOV006. This was done using a flow rate of […] and a 3 M MgCl₂ regeneration buffer. Each flow cell was evaluated each time due to changes in chip surface, affinity of IgGs, IgG protein quality and differences in dilutions. We started with an IgG concentration of 0.5 ug/mL and increased (or decreased) the concentration depending on the results from the sample injections. […] After capturing parameters were determined for each antibody in each flow cell, human β-klotho at various concentrations was passed over the chip and kₐ (1/Ms), kd (1/s), KD (M), and Rmax (RU) were calculated by Biacore kinetics.
In vitro work was done to show the binding and cell activity properties of NOV004, NOV005, and NOV006. […]
Background: In SPR one partner is held on a chip, and binding of the other changes the refractive index at the surface.

Sequence of human FGFR1c_β-klotho receptor complex (on HEK293 cells) (chain, as listed by the source, chain 1 of 2): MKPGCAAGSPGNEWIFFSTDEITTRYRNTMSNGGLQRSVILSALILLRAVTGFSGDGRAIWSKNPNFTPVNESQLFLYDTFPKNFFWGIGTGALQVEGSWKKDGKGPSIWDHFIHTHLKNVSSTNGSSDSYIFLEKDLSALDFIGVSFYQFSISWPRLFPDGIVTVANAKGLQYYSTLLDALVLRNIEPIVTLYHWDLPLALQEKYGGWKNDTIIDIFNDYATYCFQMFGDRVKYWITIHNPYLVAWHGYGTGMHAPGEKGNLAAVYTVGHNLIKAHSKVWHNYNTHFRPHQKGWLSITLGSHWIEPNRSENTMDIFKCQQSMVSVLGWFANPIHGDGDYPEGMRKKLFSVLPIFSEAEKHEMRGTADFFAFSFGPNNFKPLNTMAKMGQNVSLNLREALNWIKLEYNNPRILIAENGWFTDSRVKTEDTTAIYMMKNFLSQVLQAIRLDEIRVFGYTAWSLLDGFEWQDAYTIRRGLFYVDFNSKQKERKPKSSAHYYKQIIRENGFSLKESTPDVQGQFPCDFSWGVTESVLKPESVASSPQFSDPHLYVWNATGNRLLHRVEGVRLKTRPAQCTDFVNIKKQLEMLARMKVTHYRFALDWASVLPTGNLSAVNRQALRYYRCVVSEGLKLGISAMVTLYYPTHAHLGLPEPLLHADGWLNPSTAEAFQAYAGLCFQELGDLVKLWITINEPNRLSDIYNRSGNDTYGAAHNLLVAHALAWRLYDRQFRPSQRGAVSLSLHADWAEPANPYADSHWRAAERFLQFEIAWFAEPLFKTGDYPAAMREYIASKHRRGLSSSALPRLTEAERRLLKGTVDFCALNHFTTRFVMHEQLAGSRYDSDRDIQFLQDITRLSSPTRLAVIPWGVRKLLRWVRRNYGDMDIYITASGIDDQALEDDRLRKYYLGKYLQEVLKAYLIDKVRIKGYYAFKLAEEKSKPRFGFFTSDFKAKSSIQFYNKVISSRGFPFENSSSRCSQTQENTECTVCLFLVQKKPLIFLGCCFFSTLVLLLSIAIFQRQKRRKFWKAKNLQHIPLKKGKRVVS
Sequence of human FGFR1c_β-klotho receptor complex (on HEK293 cells) (P11362 22-822, chain 2 of 2): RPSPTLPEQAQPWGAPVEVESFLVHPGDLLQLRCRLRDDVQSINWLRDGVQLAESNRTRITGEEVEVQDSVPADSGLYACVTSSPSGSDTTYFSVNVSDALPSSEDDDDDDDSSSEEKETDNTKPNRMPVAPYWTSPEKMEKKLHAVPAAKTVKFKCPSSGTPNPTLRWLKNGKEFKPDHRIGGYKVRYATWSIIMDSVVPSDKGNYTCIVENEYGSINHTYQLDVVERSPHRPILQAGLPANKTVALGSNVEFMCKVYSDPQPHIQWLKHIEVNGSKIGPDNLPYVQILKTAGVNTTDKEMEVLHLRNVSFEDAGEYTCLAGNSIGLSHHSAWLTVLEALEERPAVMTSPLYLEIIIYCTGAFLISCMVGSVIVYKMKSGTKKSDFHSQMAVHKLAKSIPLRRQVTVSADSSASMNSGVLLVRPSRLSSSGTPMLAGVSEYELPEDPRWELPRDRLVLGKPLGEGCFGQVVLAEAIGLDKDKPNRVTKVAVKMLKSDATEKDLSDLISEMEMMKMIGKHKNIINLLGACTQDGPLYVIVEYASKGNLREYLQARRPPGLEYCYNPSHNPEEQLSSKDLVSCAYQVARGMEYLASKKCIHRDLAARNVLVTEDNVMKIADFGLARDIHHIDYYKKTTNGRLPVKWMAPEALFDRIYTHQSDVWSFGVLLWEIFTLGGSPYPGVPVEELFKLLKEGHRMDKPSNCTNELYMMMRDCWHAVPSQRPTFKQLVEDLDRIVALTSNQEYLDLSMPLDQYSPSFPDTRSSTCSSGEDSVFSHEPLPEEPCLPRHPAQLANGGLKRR
Sequence of cynomolgus monkey FGFR1c_β-klotho receptor complex (on HEK293 cells) (chain, as listed by the source, chain 1 of 2): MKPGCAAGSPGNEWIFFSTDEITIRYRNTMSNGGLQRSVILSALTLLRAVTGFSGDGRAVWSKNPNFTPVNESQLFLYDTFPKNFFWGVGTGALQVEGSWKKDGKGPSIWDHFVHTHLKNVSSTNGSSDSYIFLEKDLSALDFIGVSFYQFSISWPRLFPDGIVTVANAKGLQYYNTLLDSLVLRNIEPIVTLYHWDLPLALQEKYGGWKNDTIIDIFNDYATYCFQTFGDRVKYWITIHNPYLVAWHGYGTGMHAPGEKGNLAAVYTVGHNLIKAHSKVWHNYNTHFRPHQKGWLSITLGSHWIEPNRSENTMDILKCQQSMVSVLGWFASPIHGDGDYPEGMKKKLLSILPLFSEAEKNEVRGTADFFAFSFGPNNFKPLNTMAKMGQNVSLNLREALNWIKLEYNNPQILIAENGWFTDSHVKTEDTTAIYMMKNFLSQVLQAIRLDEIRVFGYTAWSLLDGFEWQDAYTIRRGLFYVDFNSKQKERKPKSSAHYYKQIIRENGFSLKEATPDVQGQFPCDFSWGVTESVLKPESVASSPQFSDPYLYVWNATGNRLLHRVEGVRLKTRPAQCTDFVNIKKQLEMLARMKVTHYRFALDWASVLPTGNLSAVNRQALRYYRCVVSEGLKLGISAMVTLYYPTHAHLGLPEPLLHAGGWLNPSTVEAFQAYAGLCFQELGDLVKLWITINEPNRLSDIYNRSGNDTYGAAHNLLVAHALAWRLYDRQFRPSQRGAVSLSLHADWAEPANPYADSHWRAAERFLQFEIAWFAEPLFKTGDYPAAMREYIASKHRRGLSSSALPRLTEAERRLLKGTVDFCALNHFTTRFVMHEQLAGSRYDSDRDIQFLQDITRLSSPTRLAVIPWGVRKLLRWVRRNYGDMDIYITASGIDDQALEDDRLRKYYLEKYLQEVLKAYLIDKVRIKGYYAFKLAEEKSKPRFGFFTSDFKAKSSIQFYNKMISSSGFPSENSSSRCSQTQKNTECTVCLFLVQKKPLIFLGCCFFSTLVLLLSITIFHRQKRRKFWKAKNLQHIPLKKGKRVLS
Sequence of cynomolgus monkey FGFR1c_β-klotho receptor complex (on HEK293 cells) (P11362 22-822, chain 2 of 2): as the sequence (P11362 22-822, chain 2 of 2) above

B1: NOV004 (antibody, human IgG1, kappa, V domains shown)
VH: EVQLVESGGGLVKPGGSLRLSCAVSGYSITSGYTWHWVRQAPGKGLEWLSYIHYSVYTNYNPSVKGRFTISRDTAKNSFYLQMNSLRAEDTAVYYCARRTTSLERYFDVWGQGTLVTVSS
VL: DIQMTQSPSSLSASVGDRVTITCQASQDISNYLNWYQQKPGKAPKLLIYYTSRLQSGVPSRFTGSGSGADYTFTISSLQPEDIATYFCQQGNTLPYTFGQGTKLEIKR
notes: Humanized mAb derived from mouse hybridoma 127F19
On to B1, for which the “pERK activation EC50” value in test [1] was about 20 nM; in test [2] it was about 3 nM. The Kd in test [3] was about 0.3 nM.

B2: NOV005 (antibody, human IgG1, kappa, V domains shown)
VH: QVQLQESGPGLVKPSQTLSLTCTVSGYSITSGYTWHWIRQHPGKGLEWIGYIHYSVYTNYNPSLKSRVTISRDTSKNQFSLKLSSVTAADTAVYYCARRTTSLERYFDVWGQGTLVTVSS
VL: DIQMTQSPSSLSASVGDRVTITCQASQDISNYLNWYQQKPGKAPKLLIYYTSRLQSGVPSRFSGSGSGADYTFTISSLQPEDIATYFCQQGNTLPYTFGQGTKLEIKR
notes: as for B1
As for B2, the “pERK activation EC50” value in test [1] is about 16 nM; in test [2], about 3 nM. In test [3], the Kd was about 0.3 nM.

B3: NOV006 (antibody, human IgG1, kappa, V domains shown)
VH: QVQLQESGPGLVKPSQTLSLTCTVSGYSITSGYTWHWIRQHPGKGLEWIGYIHYSVYTNYNPSLKSRVTISRDTSKNQFSLKLSSVTAADTAVYYCARRTTSLERYFDVWGQGTLVTVSS
VL: EIVMTQSPATLSLSPGERATLSCRASQDISNYLNWYQQKPGQAPRLLIYYTSRLQSGIPARFSGSGSGADYTLTISSLQPEDFAVYFCQQGNTLPYTFGQGTKLEIKR
notes: as for B1
On to B3, for which the “pERK activation EC50” value in test [1] is about 18 nM; in test [2], about 4 nM. For the same molecule, the Kd in test [3] is about 0.4 nM.

As usually defined, the Kd is the free concentration of one partner at which half of the binding sites on the other are occupied at equilibrium, for simple one-to-one binding.
